Experimental data: patent publication US20100291074A1 (COLUMBIA UNIVERSITY IN THE CITY OF NEW YORK, published 2010)

Key:
monomeric Aβ40 = target: T1, monomeric Aβ40 (UniProt P05067 672-711); test: SPR (BIAcore 3000), Aβ immobilized on a CM5 chip, CypD in the mobile phase, 25° C.; monomeric Aβ40
T1 construct: domain: Aβ(1-40); Immobilized on a CM5 chip by amine coupling for SPR; also called Aβ(1-40); amyloid beta
Method: (§1) Aβ(1-40) and Aβ(1-42), including monomeric and oligomeric Aβ, were used in the binding assay. The kinetic parameters evaluating binding affinity were analyzed as described in the Examples. […] The evaluating curves (red line) were overlaid with experimental data.
(§2) The monomeric and oligomeric Aβ were prepared as described and characterized by atomic force microscopy. SPR studies were performed on a BIAcore 3000 system (BIAcore AB, Uppsala, Sweden). Aβ (500 μg/ml) was immobilized using the standard amino coupling on a research-grade CM5 sensor chip. […] The binding curves were analyzed with the global fitting model using BIA evaluation version 4.0.1 (BIAcore AB).

oligomeric Aβ42 = target: T2, oligomeric Aβ42 (UniProt P05067 672-713); test: SPR (BIAcore 3000), Aβ immobilized on a CM5 chip, CypD in the mobile phase, 25° C.; oligomeric Aβ42
T2 construct: domain: Aβ(1-42); Oligomer; Immobilized on a CM5 chip for SPR; also called Aβ(1-42); amyloid beta
T2 sequence (P05067 672-713 limits assumed): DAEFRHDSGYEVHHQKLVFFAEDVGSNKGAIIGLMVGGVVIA
Method: as §1, §2

monomeric Aβ42 = target: T3, monomeric Aβ42 (UniProt P05067 672-713); test: SPR (BIAcore 3000), Aβ immobilized on a CM5 chip, CypD in the mobile phase, 25° C.; monomeric Aβ42
T3 construct: domain: Aβ(1-42); Immobilized on a CM5 chip by amine coupling for SPR; also called Aβ(1-42); amyloid beta
T3 sequence (P05067 672-713 limits assumed): as above
Method: as §1, §2

oligomeric Aβ40 = target: T4, oligomeric Aβ40 (UniProt P05067 672-711); test: SPR (BIAcore 3000), Aβ immobilized on a CM5 chip, CypD in the mobile phase, 25° C.; oligomeric Aβ40
T4 construct: domain: Aβ(1-40); Oligomer; Immobilized on a CM5 chip for SPR; also called Aβ(1-40); amyloid beta
T4 sequence (P05067 672-711 limits assumed): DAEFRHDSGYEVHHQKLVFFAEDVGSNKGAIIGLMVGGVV
Method: as §1, §2

T1 sequence (P05067 672-711 limits assumed): as above

B1: purified recombinant human CypD protein (Cyclophilin D) (enzyme)
chain: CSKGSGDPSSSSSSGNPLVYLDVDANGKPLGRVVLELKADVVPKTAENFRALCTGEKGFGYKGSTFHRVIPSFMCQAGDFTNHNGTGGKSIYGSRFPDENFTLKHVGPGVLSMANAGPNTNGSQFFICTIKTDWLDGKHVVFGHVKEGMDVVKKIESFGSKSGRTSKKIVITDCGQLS
notes: also called human mitochondrial CypD protein; PPIF
For B1, the Kd (monomeric Aβ40) was 1700 nM, the Kd (oligomeric Aβ42) was 4 nM and the Kd (monomeric Aβ42) was 164 nM. It also gave a Kd (oligomeric Aβ40) of 227 nM.
